Substitutions are numbered along the chain they refer to. In names and notes the source's numbering stands. Blank lines part the entries; values can stand above or below the binder they belong to.
What was measured:
Spt6 (239-1451) = target: T1, Spt6 (239-1451) (S. cerevisiae, UniProt P23615 239-1451); experiment: fluorescence polarisation
T1 sequence (looked up): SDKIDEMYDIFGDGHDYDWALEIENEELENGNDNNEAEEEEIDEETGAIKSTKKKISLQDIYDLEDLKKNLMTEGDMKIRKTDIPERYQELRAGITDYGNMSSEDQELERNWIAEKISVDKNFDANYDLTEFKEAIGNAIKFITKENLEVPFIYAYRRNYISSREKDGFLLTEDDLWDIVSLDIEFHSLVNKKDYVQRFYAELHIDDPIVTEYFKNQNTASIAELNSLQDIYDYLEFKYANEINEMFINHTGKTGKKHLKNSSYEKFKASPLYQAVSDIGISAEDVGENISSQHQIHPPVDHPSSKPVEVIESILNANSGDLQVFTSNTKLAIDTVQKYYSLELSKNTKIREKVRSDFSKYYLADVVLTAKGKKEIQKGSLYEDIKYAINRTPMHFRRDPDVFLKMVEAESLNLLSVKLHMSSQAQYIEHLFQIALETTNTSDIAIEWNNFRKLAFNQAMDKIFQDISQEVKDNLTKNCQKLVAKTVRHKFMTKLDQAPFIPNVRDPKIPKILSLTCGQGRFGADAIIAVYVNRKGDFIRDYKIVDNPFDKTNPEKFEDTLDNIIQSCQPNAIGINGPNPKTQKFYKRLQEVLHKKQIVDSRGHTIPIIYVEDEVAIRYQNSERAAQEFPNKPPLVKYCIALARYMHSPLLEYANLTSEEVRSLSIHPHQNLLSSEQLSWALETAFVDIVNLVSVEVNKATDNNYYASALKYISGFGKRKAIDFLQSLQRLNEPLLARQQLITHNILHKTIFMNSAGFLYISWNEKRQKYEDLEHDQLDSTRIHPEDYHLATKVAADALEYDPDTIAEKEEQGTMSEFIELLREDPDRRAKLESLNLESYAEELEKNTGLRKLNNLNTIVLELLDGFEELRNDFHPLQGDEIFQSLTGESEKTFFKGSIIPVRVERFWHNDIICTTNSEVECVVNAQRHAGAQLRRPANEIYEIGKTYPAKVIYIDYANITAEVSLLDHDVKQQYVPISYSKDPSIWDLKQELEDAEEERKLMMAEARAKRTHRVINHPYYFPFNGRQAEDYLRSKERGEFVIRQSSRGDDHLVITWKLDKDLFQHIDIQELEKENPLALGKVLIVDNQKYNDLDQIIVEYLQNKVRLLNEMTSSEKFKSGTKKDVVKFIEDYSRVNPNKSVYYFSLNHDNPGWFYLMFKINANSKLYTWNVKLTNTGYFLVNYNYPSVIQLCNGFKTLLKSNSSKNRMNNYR

[1] = target: T2, 10xHis-mRuby2-Spt6 (239-1451) (S. cerevisiae, UniProt P23615 239-1451); experiment: native gel or EMSA
T2 sequence (looked up): T1 sequence (looked up)

- Kd (Spt6 (239-1451)): 770 nM
- Kd [1]: ~320 nM
B1: 10xHis-mClover-Cdc73 (natural protein, S. cerevisiae, UniProt Q06697 1-393, looked up)
chain: MANSLDRLREHLKNGDKLVLKNNEGQSTDDITKATMVETLSSDGSTQDSFPLNEETEIEIDGSLVQLRIIVHCWMNKDSSAADYLADCQNKQLTNVSFLQRTDLINWLSGNTESSQYLKAPGQKGETSDKVDIENKTLAGELSTVKSTTSASLENDSEVSDPVVVETMKHERILVDHNSALRGAKPINFGYLIKDAELKLVQSIKGSLRGSKLPPGHKGAHGRISKTNGSSGGPRKDPIILIPSAASSILTVANIKQFLLESKYVNPRNLPSVPNGLVNIEKNFERISRPIRFIIVDNTRMFTKPEYWDRVVAIFTTGHTWQFNNYQWNSPQELFQRCKGYYFHFAGDSVPQHVQQWNVEKVELDKNKRFKDVEVVRYFWHSLEKELISRGYR

- binding result [1]: binds
B2: 10xHis-mClover-Cdc73 W321A (natural protein, S. cerevisiae, UniProt Q06697 1-393, looked up)
chain: B1 chain with W321A

— paper PMC10250246 (Nucleic Acids Research, 2023)
